# Laboratory results published in the RNAGym collection of RNA variant scans (doi:10.1073/pnas.2313332121).
# Fewer inactive variants are shown than the library holds.
# B1: TPR 5TU (parent)
# chain: GGAUCUUCUCGAUCUAACAAAAAAGACAAAUCUGCCACAAAGCUUGAGAGCAUCUUCGGAUGCAGAGGCGGCAGCCUUCGGUGGCGCGAUAGCGCCAACGUUCUCAACUAUGACACGCAAAACGCGUGCUCCGUUGAAUGGAGUUUAUCAUG
# Variants of: B1
# Experiment: polymerase ribozyme fitness, log enrichment relative to wild type (log ratio); higher = more active; in vitro selection for triplet polymerase activity
# In short: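 Mutant libraries of each subunit of a heterodimeric triplet polymerase ribozyme were built by PCR and transcribed. Each library went through one round of in vitro selection in triplicate: annealing with biotinylated primer, partner subunit and triplets, frozen incubation at −7 °C, gel excision of extended constructs, streptavidin-bead capture and RT-PCR. Input and output libraries were Illumina-sequenced; only genotypes with ≥10 input reads and ≥1 read per output were kept. Fitness is log2(genotype enrichment/wild-type enrichment), using inverse-variance-weighted replicate averages.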
row,Variant,polymerase ribozyme fitness (log ratio)
1,G70C C96U G100A C118G A120C,≤ -4.2
2,C72U G124U A142G,-2
3,G68A C87U C114A U144C,-4.11
4,C69G G88A U90G U146A,≤ -4.2
5,C69G C85U U101G,-1.25
6,C69G C93G,-3.97
7,C69G C93A,≤ -4.2
8,A73G C76A G88C C105G C108G C114U G136U,-3.91
9,C69U A73G G83C,-3.38
10,C69A G71U,-0.808
11,C72G A89G G92A C114G,≤ -4.2
12,G71U A91U A122G G143U U145C,≤ -4.2
13,G71A C85U C96A A107G C118A,≤ -4.2
14,C72A C85A,-3.85
15,G68U A73G C76U A91U A98G C99A G112U,≤ -4.2
16,C69G C85U G86A,-3.62
17,C72G C108U A137C,≤ -4.2
18,G71A C85G C87U,≤ -4.2
19,G71C A119G,-3.01
20,G71A G80U C85U,≤ -4.2
21,G71A C96A,-3.18

row,Variant,polymerase ribozyme fitness (log ratio)
1,C72U U134A,-2.32
2,G68A C87A A106C G117U,≤ -4.2
3,C72U G92U U135A G143A,-3.54
4,G68A A122G G133C,≤ -4.2
5,C72U A91U C96G,≤ -4.2
6,A73G C93A U146C,-2.15
7,G71U A147C,-3.65
8,C69A A73G G92C,-1.54
9,C69G C85U A91G C118A C129G U144A,≤ -4.2
10,A73C G94A C95U U102C G126C G141U,≤ -4.2
11,A73C G86C U104C,≤ -4.2
12,G68U C75A G81U G83A C95U C96U C116U,-1.31
13,C72U C95U C96U U146A,-2.06
14,A73G C85U C96G C108G U127G G136C,≤ -4.2
15,G68C U78C C96A A98G G143A,≤ -4.2
16,G71A A91U U146G,≤ -4.2
17,G68U A73U G94A A119U,≤ -4.2
18,C72A A91U U145A,≤ -4.2
19,G70A G86A A89G C99A,≤ -4.2
20,A73G C95U A122U C125U U127G A138G,≤ -4.2
21,C69G C72U,-2.71

row,Variant,polymerase ribozyme fitness (log ratio)
1,G70C A142C,-3.72
2,G68A G74C G88A,≤ -4.2
3,C69A A119U,-2.7
4,G71U G74C A120C,≤ -4.2
5,G70C G83C C105U C125U,≤ -4.2
6,C69G C76G C96A A138G,≤ -4.2
7,C69A C85G A121C,-3.43
8,C72U C93G U130C G133C,≤ -4.2
9,G68A C69G G80A U104G,≤ -4.2
10,A73G C93A A110C U139A,≤ -4.2
11,G71C A91U C93U U104G,≤ -4.2
12,A73G A107U,-4.1
13,C69A C75U A106G A120G,-2.33
14,C72A U148A,≤ -4.2
15,G68C G83U G133U A137C,≤ -4.2
16,G70U G81A,-2.35
17,G71U C93U U104G C149A,≤ -4.2
18,G70A G100C,≤ -4.2
19,G70U A119C,-2.09
20,A73C A121U G133U,≤ -4.2
21,G71C C76G A113U G124A,≤ -4.2

row,Variant,polymerase ribozyme fitness (log ratio)
1,G68A G80A G86U U90G A91G G136A A142G,≤ -4.2
2,C69A G84A U104G C125U G126A A142C,≤ -4.2
3,G68C C79A G83U U101A U104C C108G A142G,≤ -4.2
4,A73G C99U,-0.979
5,C69G C103A U144G,-1.57
6,G71C G92U,-3.46
7,G71C G92A,≤ -4.2
8,G68C G83A,≤ -4.2
9,C69G,-1.51
10,C69A,-1.57
11,C69U,-1.03
12,A73G C87A,-4.18
13,A73G C87U,-1.55
14,G70U C85U G88C U145C,≤ -4.2
15,G68A C96U C132G,≤ -4.2
16,C72U U90C C93A U104A U127A,≤ -4.2
17,G71A G86A,-3.5
18,G70C G86A C114U A115G G143U A150C,≤ -4.2
19,C69A A73C G86A A119C U145A,≤ -4.2
20,C69U G84U G133C,-3.62
21,G68A A138G,≤ -4.2
